Laboratory results reported in paper PMC12246617, “Cryo-EM structures reveal the PP2A–B55α and Eya3 interaction that can be disrupted by a peptide inhibitor” (The Journal of Biological Chemistry, 2025).

Target: His-hB55 (human PP2A regulatory subunit B55α) (human) (UniProt P63151)
Assay: MST; His-B55 labelled with RED-Tris-NTA dye, added to serial dilutions of mEya3 (wild type or mutant) in PBS with 0.05% Tween-20; Monolith NT.115 Pico

His-hB55 (human PP2A regulatory subunit B55α) (human), sequence (P63151 whole entry): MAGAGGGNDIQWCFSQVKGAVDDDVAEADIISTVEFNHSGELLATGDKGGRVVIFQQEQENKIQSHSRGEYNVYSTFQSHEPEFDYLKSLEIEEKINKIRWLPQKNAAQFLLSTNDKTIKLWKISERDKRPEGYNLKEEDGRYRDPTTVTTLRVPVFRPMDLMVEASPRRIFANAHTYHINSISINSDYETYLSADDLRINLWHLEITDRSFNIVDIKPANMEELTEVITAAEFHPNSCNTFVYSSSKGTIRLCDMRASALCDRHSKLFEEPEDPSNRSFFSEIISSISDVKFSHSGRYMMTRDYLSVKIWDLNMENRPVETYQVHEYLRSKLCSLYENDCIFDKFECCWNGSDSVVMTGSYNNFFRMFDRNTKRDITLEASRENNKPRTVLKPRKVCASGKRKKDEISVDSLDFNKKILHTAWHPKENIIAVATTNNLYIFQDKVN

Kd: 1040 nM
Substance: mouse Eya3 (mEya3), wild type (from UniProt P97480 1-510) (natural protein)
